Entries after “also recorded” stand apart in the source; their conditions may differ.
How the values were obtained:
[1] = molecular target: T1, human pro-MMP-9 (Homo sapiens, UniProt P14780); assay: Biacore binding of analyte to coated antibody; details: Direct capture, 25° C.
T1 construct: the human pro-MMP-9 (R&D, 911-MP); purchased R&D 911-MP
Method: (§1) The non competitive inhibition model implies that the ternary complex enzyme-substrate-inhibitor can form. It is however possible that this complex cannot form with bigger substrates, in which case the antibody would behave as a competitive inhibitor. In order to address this issue, the ability of M0237-D02 antibody to bind to the h-MMP-9 when the enzyme is complexed to its natural inhibitor h-TIMP-1 was determined. The reasoning is that if the antibody cannot bind to the h-MMP-9/h-TIMP-1 complex, it would probably behave as a competitive inhibitor of this enzyme in the presence of bigger substrates.
(§2) Experiments were performed at 25° C. with the help of a Biacore 3000 instrument. The MMP-9 binding protein (M0166F10) and the M0237-D02 antibody were coated to a CM5 chip either via standard amine coupling or using an anti-Fc antibody surface. Then either the active, human MMP-9 catalytic domain (BIOMOL, SE-244), the human pro-MMP-9 (R&D, 911-MP), the human TIMP-1 (R&D, 970-TM) or a h-MMP-9/h-TIMP-1 complex were flowed over the antibody surfaces, and binding was recorded.

[2] = molecular target: T2, human TIMP-1 (Homo sapiens, UniProt P01033); assay: Biacore binding of analyte to coated antibody; details: Direct capture; 25° C.
T2 construct: purchased R&D 970-TM
Method: as §1, §2

[3] = molecular target: h-MMP-9/h-TIMP-1 complex (Homo sapiens, UniProt P14780); assay: Biacore binding of analyte to coated antibody; details: 25° C.
Method: as §1, §2

[4] = molecular target: T3, Human MMP-9 catalytic domain (Homo sapiens, UniProt P14780); assay: Biacore binding of analyte to coated antibody; details: 25° C.
T3 construct: Human MMP-9 catalytic domain (BIOMOL, SE-244); purchased BIOMOL SE-244
Method: as §1, §2

[5] = system: gelatinolytic activity (tumoral MMP-2-9) in MCF-7 tumor sections; assay: Film in situ zymography (FIZ); format: biochemical, human; details: 500 nM, 37° C. overnight
Method: (§3) PBS-control treated tumors were screened with M0237-D02 for gelatinase expression using the FIZ approach. The tumors tested were Colo205 and MCF-7. Briefly, frozen slides of tumpor sections were dried at room temperature and 200 μl of in situ Zymo buffer (TCNB)+20 μg/ml of gelatin quenched substrate from molecular probes was added. The slides were incubate at 37° c. overnight in the presence of M0237-D02 at 500 nM or GM6001 used as a positive control at 100 μM. The substrate was washed in MilliQ (3 times) and the mounted slides were treated with anti-Fade+Dapi mounting medium.

[6] = system: gelatinolytic activity (tumoral MMP-2-9) in Colo205 tumor sections; assay: Film in situ zymography (FIZ); format: biochemical, human; details: 500 nM, 37° C. overnight
Method: as §3

[7] = molecular target: T3, Human MMP-9 catalytic domain; assay: Inhibition progress curves and kinetic analysis; format: biochemical; details: 25° C.; for kobs: substrate 9 μM
Method: The kinetics of the interaction between M0237-D02 and the human MMP-9 were determined. The rates were determined using the following equation: […]
The second order rate constant for the association of the enzyme E and the inhibitor I (kon) and the first order rate constant for the dissociation of the complex El (koff) can be calculated from inhibition progress curves obtained at different inhibitor concentrations.
Materials: • Substrate: Mca -KPLGL-Dap(Dnp)-AR-NH2(SEQ ID NO: 1279) (M-2350) from BACHEM (521575). A 10mM stock solution was prepared in DMSO. • Human MMP-9 catalytic domain (BIOMOL, SE-244). • M0237-D02 hIgG1 : 2517-068. • All measurements were performed at 25° C. in TCNB: 50 mM Tris/HCl, 10 mM CaCl2, 150mM NaCl 0.05% Brij 35, pH 7.5. • 96-well black plates from Perkin Elmer (6005270) • Spectramax M2e to measure fluorescence emission of the substrate upon hydrolysis (λexc=328 nm and λem=393 nm)
The enzyme (at a final concentration ranging from 1.5 to 12.3 nM), the substrate (9 μM final) and the M0237-D02 antibody were mixed, and the fluorescence was immediately recorded in order to follow the hydrolysis of the substrate. The observed inhibition rate (kobs) was obtained by analyzing the progress curves with a single exponential. The value for kon and koff were calculated from the plot of the kobs vs. the antibody concentration using the following equation: kobs=kon[I]+koff
kobs was measured at four antibody concentrations (table below): […]

[8] = system: collagen-induced arthritis (CIA) mice; assay: Collagen-induced arthritis (CIA) mice; format: in vivo, mouse; details: CIA model, compared to untreated mice; FIG. 3
Description: (§4) The purpose of the following experiments were to determine the effect of 539A-M0237-D02 on inflammation and specifically on inflammatory cell infiltration into the carrageenan-stimulated mouse air pouch and on the arthritic index in collagen-induced arthritis (CIA) mice.
The collagen-induced arthritis (CIA) was produced by the immunization of susceptible strains of mice with native type II collagen. The collagen was emulsified in Freund's complete adjuvant and injected subcutaneously. A booster injection of collagen in incomplete adjuvant was given IP 21 days after the initial immunization. The disease is due to an auto-immune response induced upon immunization with collagen.
The effect 539A-M0237-D02 on the arthritic index was compared to administration of methotrexate (MTX).

[9] = system: inflammatory cell infiltration into the carrageenan-stimulated mouse air pouch; assay: Carrageenan-stimulated mouse air pouch model; format: in vivo; details: FIG. 2
Description: as §4
For the carrageenan-stimulated mouse air pouch model, subcutaneous injection of air into the hind flank or back of mice produces an air pouch in a week, the interior surface of which contains both fibroblast-like and macrophage-like cells. Inflammatory stimulation of the pouch results in leukocyte recruitment to the pouch and release of mediators (cytokines) into the exudate. Preventing inflammatory cell infiltration into the air pouch may translate into preventing inflammation of the synovium in rheumatoid arthritis.
The effect of 539A-M0237-D02 on inflammatory cell infiltration was compared to inflammatory cell infiltration indomethacin and a control (PBS). In addition, inflammatory cell recruitment was compared to an unstimulated mouse.

[10] = molecular target: T4, Mouse MMP-9 (Mus musculus, UniProt P41245); assay: Ki determination with fluorogenic peptide substrate; format: biochemical; details: fluorogenic peptide substrates
T4 construct: purchased R&D 909-MM
Method: (§5) This example characterized the interaction of the M0237-D02 hIgG1 with the human and mouse MMP-9. The Ki was measured and the inhibition mechanism was determined.
(§6) Materials: • Substrate: Mca -KPLGL-Dap(Dnp)-AR-NH2(SEQ ID NO: 1279) (M-2350) from BACHEM (521575). A 10mM stock solution was prepared in DMSO. • Enzymes: • Human MMP-9 catalytic domain (BIOMOL, SE-244). Enzyme concentration was measured by titration with TIMP-1 (2522-104) • Mouse MMP-9 (R&D, 909-MM), APMA-activated. • M0237-D02 hIgG1 : 2517-014. Dialysed against TCN. • TCNB: 50 mM Tris/HCl, 10 mM CaCl2, 150 mM NaCl, 0.05% Brij 35, pH 7.5. • 96-well black plates from Perkin Elmer (6005270) • Spectramax M2e to measure fluorescence emission of the substrate upon hydrolysis (temperature control set at 30° C.; λexc=328 nm and λem=393 nm)
(§7) The enzyme (final concentration=0.23 and 0.17 nM for the human and mouse MMP-9, respectively) was preincubated with various concentrations (0-50 nM) of M0237-D02 for 1 h at 30° C. The substrate was then added to a final concentration ranging from 5 to 40 μM and initial rates were recorded.
(§8) Each data point was measured in triplicate, and initial rates were averaged.
(§9) Averaged initial rates were plotted against the M0237-D02 concentration for each substrate concentration, and IC50's were calculated using the following equation: […]
(§10) The IC50 values were then plotted against the substrate concentration.

[11] = molecular target: T3, Human MMP-9 catalytic domain; assay: as above; format: biochemical; details: fluorogenic peptide substrates
Method: as §5, §6, §7, §8, §9, §10

[12] = Direct capture (amine coupling) of antibody on CM5 chip
[13] = Fc capture (anti-Fc antibody surface)
[14] = from plot of kobs vs. the antibody concentration

T3 sequence (P14780 107-449 limits assumed): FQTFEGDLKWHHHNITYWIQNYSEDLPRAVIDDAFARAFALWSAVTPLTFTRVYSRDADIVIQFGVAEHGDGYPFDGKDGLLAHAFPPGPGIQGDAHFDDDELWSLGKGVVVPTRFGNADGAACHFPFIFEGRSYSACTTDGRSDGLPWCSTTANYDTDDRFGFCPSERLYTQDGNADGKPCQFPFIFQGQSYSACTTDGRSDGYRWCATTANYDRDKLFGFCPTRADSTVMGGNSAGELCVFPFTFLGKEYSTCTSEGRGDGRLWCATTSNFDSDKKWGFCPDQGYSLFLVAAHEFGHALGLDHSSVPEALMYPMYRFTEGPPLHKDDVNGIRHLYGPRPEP
h-MMP-9/h-TIMP-1 complex, sequence (P14780 107-449 limits assumed): as above
h-MMP-9/h-TIMP-1 complex, sequence (P01033 24-207 partner): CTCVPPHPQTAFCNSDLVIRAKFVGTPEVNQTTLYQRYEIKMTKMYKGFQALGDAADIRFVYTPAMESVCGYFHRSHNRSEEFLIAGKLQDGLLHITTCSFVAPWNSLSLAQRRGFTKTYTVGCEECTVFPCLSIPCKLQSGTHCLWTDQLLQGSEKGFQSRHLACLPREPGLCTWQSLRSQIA
T1 sequence (P14780 20-707 limits assumed): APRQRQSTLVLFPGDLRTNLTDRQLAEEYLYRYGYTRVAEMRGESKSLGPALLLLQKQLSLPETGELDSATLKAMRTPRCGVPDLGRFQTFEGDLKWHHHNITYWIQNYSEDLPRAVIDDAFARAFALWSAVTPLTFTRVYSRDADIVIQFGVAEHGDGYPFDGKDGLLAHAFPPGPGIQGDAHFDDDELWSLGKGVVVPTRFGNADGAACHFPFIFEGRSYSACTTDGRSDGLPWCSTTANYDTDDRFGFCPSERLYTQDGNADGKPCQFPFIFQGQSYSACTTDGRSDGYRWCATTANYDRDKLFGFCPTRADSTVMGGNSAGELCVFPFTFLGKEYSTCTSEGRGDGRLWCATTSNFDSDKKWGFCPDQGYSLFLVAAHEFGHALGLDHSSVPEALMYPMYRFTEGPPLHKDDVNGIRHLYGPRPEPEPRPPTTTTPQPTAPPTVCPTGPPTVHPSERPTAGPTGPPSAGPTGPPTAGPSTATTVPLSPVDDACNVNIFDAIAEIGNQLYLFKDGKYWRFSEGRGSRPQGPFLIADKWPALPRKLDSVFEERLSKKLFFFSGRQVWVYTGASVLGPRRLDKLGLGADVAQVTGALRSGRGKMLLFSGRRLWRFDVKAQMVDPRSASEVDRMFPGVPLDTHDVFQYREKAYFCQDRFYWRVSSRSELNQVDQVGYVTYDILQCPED
T2 sequence (P01033 24-207): as the sequence (P01033 24-207 partner) above
T4 sequence (P41245 108-730): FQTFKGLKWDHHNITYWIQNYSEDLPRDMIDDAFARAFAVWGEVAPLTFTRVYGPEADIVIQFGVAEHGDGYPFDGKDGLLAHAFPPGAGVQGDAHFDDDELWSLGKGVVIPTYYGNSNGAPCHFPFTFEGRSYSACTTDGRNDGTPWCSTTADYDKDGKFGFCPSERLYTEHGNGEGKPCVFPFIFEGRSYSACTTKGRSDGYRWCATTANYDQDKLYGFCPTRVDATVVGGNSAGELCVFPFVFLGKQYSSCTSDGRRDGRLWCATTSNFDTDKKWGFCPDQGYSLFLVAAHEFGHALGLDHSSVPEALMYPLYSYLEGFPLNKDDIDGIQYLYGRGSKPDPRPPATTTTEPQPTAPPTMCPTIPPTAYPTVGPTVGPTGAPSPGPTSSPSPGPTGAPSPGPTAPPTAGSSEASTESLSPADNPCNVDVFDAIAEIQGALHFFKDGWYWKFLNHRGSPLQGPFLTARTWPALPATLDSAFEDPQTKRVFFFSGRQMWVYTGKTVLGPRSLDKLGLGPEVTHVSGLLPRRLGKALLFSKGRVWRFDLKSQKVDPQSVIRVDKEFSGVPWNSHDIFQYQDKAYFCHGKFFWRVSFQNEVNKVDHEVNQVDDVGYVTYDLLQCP

B1: M0237-D02: MMP-9/-2 dual reactive antibody inhibitor (parental); used as hIgG1 and Fab; VL/VH sequences in Example 7 (antibody, V domains shown)
VL: QDIQMTQSPATLSLSPGERATLSCRASQSISSFLAWYQQKPGQAPRLLIYDASYRATGIPARFSGSGSGTDFTLTISSLEPEDYAVYYCQQRGNWPITFGQGTRLEIKRTVAAPS
VH: EVQLLESGGGLVQPGGSLRLSCAASGFTFSQYPMWWVRQAPGKGLEWVSYIVPSGGRTYYADSVKGRFTISRDNSKNTLYLQMNSLRAEDTAVYYCAKDRAYGDYVGWNGFDYWGQGTLVTVSSASTKGPSVFPLAPSSKS
Binding of Pro-huMMP-9 ([1]; listed as 539A-M0237D02): No | Binding of Pro-huMMP-9 ([1]; listed as M237-D02): observed neither | Binding of huTIMP-1 [2]: No | Binding of huTIMP-1/cat-huMMP-9 ([3]; Direct capture): No | Binding of huTIMP-1/cat-huMMP-9 ([3]; Fc capture): no binding was observed; also recorded: cannot bind | Binding of huTIMP-1/cat-huMMP-9 ([3]; Fc capture, listed as 539A-M0237D02): No | Binding of Cat-huMMP-9 [4, 12]: No | Binding of Cat-huMMP-9 [4, 13]: could be observed only if this antibody was captured via an anti-Fc antibody | Binding of Cat-huMMP-9 ([4]; Fc capture (anti-Fc antibody surface), listed as 539A-M0237D02): Yes | inhibition of gelatinolytic activity [5]: complete inhibition | inhibition of gelatinolytic activity [6]: complete inhibition | kobs ([7]; M0237-D02 concentration 14.4 nM): 0.0013 s⁻¹ | kobs ([7]; M0237-D02 concentration 19.2 nM): 0.0019 s⁻¹ | kobs ([7]; M0237-D02 concentration 28.8 nM): 0.0024 s⁻¹ | kobs ([7]; M0237-D02 concentration 115.2 nM): 0.0086 s⁻¹ | koff [7, 14]: ~4 10^−4 s^−1 | kon [7, 14]: ~7 10^4 M^−1 s^−1 | arthritic index [8]: decreased | lymphocyte infiltration [9]: significantly decreased | neutrophil infiltration [9]: significantly decreased | total white blood cell infiltration [9]: significantly decreased | inhibition model [10]: non competitive inhibitor | inhibition model [11]: non competitive inhibitor

B2: M0166-F10: inhibitory MMP-9 binding antibody (hMMP-9 antibody inhibitor) (antibody, V domains shown)
VL: QSELTQPPSASAAPGQRVTISCSGSSSNIGSNTVTWYQKLPGTAPKLLIYNNYERPSGVPARFSGSKSGTSASLAISGLQSEDEADYYCATWDDSLIANYVFGSGTKVTVLGQPKANP
VH: EVQLLESGGGLVQPGGSLRLSCAASGFTFSPYLMNWVRQAPGKGLEWVSSIYSSGGGTGYADSVKGRFTISRDNSKNTLYLQMNSLRAEDTAVYYCARIYHSSSGPFYGMDVWGQGTTVTVSSASTKGPSVFPLAPSSKS
Binding of Pro-huMMP-9 [1]: observed neither | Binding of Pro-huMMP-9 ([1]; listed as 539A-M0166F10): ~No | Binding of huTIMP-1 [2]: No | Binding of huTIMP-1/cat-huMMP-9 ([3]; Direct capture): no binding was observed | Binding of huTIMP-1/cat-huMMP-9 ([3]; Direct capture, listed as 539A-M0166F10): No | Binding of Cat-huMMP-9 [4, 12]: binds | Binding of Cat-huMMP-9 ([4]; Direct capture (amine coupling) of antibody on CM5 chip, listed as 539A-M0166F10): Yes | Binding of Cat-huMMP-9 [4, 13]: binds | Binding of Cat-huMMP-9 ([4]; Fc capture (anti-Fc antibody surface), listed as 539A-M0166F10): Yes

Reference: patent US8013125B2, “Metalloproteinase 9 and metalloproteinase 2 binding proteins” (Dyax Corp., priority 2008, dated 2011)
